Measurements published in publication PMC9934072, “The mechanism of thia-Michael addition catalyzed by LanC enzymes” (Proceedings of the National Academy of Sciences of the …, 2023).
Ends that are not written are not given here.

B1: fluorescein-labeled Ala-Erk peptide (peptide)
peptide: DHTGFLAEYVATR
modifications: also: fluorescein label, end not given here
notes: Numbers count on: the synthetic 13-mer; Its preparation is not described; also called Flu-Ala-Erk; fluorescein-Ala-Erk

Assays:
[1] = biological target: fluorescein-labeled Dha-Erk peptide; assay: fluorescence polarisation; LanCL1 or variant titrated (highest 400 μM, 300 μM for some variants) against 20 nM fluorescein-peptide; 0.5 mM TCEP, 0.1 mM ZnCl2, 150 mM NaCl, 100 mM Tris pH 7.5, no GSH; 15 min incubation; triplicates
[2] = biological target: Fluorescein-labeled Erk peptide in which the Dha was substituted by L-Ala; assay: fluorescence polarisation; fluorescein-labeled peptide with LanCL1 or its variants; in the absence of GSH to avoid catalytic turnover
[3] = biological target: T1, LanCL1 Wild Type (human LanC-like protein 1) (human, UniProt O43813 1-399); assay: fluorescence polarisation; LanCL1 or variant titrated (highest 400 μM, 300 μM for some variants) against 20 nM fluorescein-peptide; 0.5 mM TCEP, 0.1 mM ZnCl2, 150 mM NaCl, 100 mM Tris pH 7.5, no GSH; 15 min incubation; triplicates; conditions: both partners purified
T1 construct: LanC-like protein 1 (LanCL1), human; also called LanCL1 WT; WT-LanCL1; source: E. coli Rosetta 2 (DE3), purified (HisTrap Ni-NTA, PD-10 desalting)

[4] = biological target: T1, LanCL1 Wild Type (human LanC-like …); assay: as above; conditions: both partners purified; remark: listed apart in the source

T1 sequence (O43813 whole entry): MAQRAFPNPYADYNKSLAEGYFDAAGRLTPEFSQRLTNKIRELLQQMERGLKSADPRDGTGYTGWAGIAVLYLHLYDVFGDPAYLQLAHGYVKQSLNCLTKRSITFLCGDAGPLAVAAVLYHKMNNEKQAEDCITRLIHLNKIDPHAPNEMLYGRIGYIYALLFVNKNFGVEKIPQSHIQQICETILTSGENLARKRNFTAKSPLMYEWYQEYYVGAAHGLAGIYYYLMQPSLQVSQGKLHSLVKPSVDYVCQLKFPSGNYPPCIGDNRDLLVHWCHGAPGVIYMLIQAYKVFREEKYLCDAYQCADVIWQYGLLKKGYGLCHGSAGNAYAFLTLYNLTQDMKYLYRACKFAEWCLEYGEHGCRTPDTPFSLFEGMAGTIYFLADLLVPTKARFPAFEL

| Molecule | Kd [1] | other results |
| --- | --- | --- |
| LanCL1 C264A/H277A (from UniProt O43813 1-399) (enzyme) | > 112 µM | – |
| human LanCL1, wild type (His6-LanCL1) (from UniProt O43813 1-399) (enzyme) | – | fold weaker binding than Flu-Dha-Erk [2]: 4 fold |
| LanCL1 C264A/H277K (from UniProt O43813 1-399) (enzyme) | > 470 µM | – |
| LanCL1 C264A/H277N (from UniProt O43813 1-399) (enzyme) | > 315 µM | – |
| B1 | – | Kd [3]: > 133 µM; Kd [4]: 79.6 ± 7.6 µM |
